Assay results: US20260078416A1, “ORTHOGONAL METABOLIC FRAMEWORK FOR ONE-CARBON UTILIZATION” (Mojia Biotech Pte. Ltd., priority 2021, published 2026)

B1: JGI20: HACS variant; GenBank PWB41796.1 (protein)
chain: MGQITGAQIVARALKQQGVEYMFGIVGIPVIPIAMFAQREGIKFYGFRNEQSASYAAAAVGYLTGRPGVCLGVSGPGMIHGVAGMANAWSNCWPMILIGGANDSYQNGQGAFQEAPQIEAARPFAKYCARPDSLARLPFYVEQAVRTSIYGRPGAVYLDLPGDIITGAMEEEDVHFPPRCPDAPRMMAPQESIDAAMAALKSAERPLVIVGKGAAYSRAENEVREFLETTQLPYLASPMGKGVMPDDHPLSIAPARSAALLGADVILLMGARLNWMMHFGHPPRFDPKVRVIQMDISAEEIGTNVPTEVALVGDAKAITTQLNASLKQQPWQYPSETTWWTGLRKKIDENGATVAEMMADESVPMSYYRVYREIRDLIPNDAIIQNEGASTMDIGRTLMPNFLPRHRLDAGSFGTMGVGLGQAIAAAAVHPDKHVFCIEGDSAFGFSGMEVETAARYGMKNITFIIINNNGIGGGPDTLDPTRVPPSAYTPNAHYEKMAEIYGGKGYFVTEPSQLRPALEEAIKADKPAIVNIMISATSQRKPQQFAWLTR
B2: JGI15: HACS variant; GenBank HAK63664.1 (protein)
chain: MAKSEGKVNGATLMARALQQQGVQYMFGIVGFPVIPIAIAAQREGITYIGMRNEQSASYAAQAASYLTGRPQACLVVSGPGVVHALAGLANAQVNCWPMLLIGGASAIEQNGMGAFQEERQVLLASPLCKYAHQVERPERIPYYVEQAVRSALFGRPGAAYLDMPDDVILGEVEEAAVRPAATVGEPPRSLAPQENIEAALDALQSAKRPLVIVGKGMAWSRAENEVRQFIERTRLPFLATPMGKGVMPDDHPLSVGGARSHALQEADLVFLLGARFNWILHFGLPPRYSKDVRVIQLDLSAEEIGNNRQAEVALVGDGKAIVGQLNQALSSRQWFYPAETPWREAIAAKIAGNQAAVAPMIADNTSPMNYYRVYRDIAARLPRNAIIVGEGANTMDIGRTQMPNFEPRSRLDAGSYGTMGIGLGFAVAAAAVHPGRPVIAVQGDSAFGFSGMEFETAARYGMPIKVIILNNGGIGMGSPAPRDGQPGMPHALSHDARYERIAEAFGGAGFYVTDSAELGPALDAAMAFKGPAIVNIKIAATADRKPQQFNWHG

Columns and labels:
[1] = test system: tartronate production from glyoxylate and formate; test: HACS screening with glyoxylate and formate (tartronate productivity); format: cell-based, E. coli; settings: 5 mM glyoxylate and 20 mM formate, first round
Text: We used 2-hydroxyacid productivity per cell density (μM/OD600) as indicator of HACS activity. 2-Hydroxyacids can be produced co-feeding various aldehydes and formic acid (formate) as carbon source in the presence of active HACS variant and acyl-CoA transferase from Clostridium aminobutyricum (CaAbfT). CaAbfT is shown to be capable of catalyzing reaction from formate to formyl-CoA (Nattermann, M., et al. ACS Catal 11 (9): 5396-5404 (2021)). HACS condenses aldehyde and formyl-CoA to form 2-hydroxyacyl-CoA, which can then be hydrolyzed to 2-hydroxyacid via native thioesterase activities (FIG. 31A).
For the in vivo prototyping, we engineered vectors to independently control expression of HACS variants and CaAbfT, with HACS under control of the IPTG-inducible T7 promoter in pCDFDuet-1 and CaAbfT under control of a cumate-inducible T5 promoter in pETDuet-1 (FIG. 31B) and transformed them into the engineered strain of E. coli described in EXAMPLE 3.
The HACS variants were screened for 2-hydroxyacid production using the high throughput screening platform as described in EXAMPLE 3 by co-feeding 5 mM aldehyde and 20 mM formate. The cells were harvested after 1 hour by centrifugation and the supernatant analyzed by HPLC (as described in EXAMPLE 2) or SoGO method.
We used tartronic acid (tartronate) productivity per cell density (uM tartronate/OD600) as indicator of HACS activity. […]

[2] = In vitro kinetic assay of purified HACS variants; substrate propionaldehyde; format: biochemical; settings: for Km: read-out: Km, app
Protocol: (§1) The kinetic assay was performed with a coupled reaction providing formyl-CoA from formate catalyzed by CoA transferase CaAbfT using acetyl-CoA as a CoA donor.
(§2) In vitro kinetic assay was comprised of 100 mM KPi pH 6.9, 10 mM MgCl2, 0.15 mM TPP, 2 mM acetyl-CoA, 1 μM CaAbfT, 0.25 μM HACS variants, and 20 mM sodium formate. Reactions were incubated at room temperature for 3 min to convert formate to formyl-CoA, and then specific concentration of aldehyde (specifically acetaldehyde or propionaldehyde here) was added to the reaction. After incubating another 3 min, 1/20 of the reaction volume of 10 M NaOH solution was added to terminate the reactions. After 30 min hydrolysis, 1/20 of the reaction volume of 10 N H2SO4 was added to neutralize the pH. Samples were centrifuged at 20817×g for 15 minutes and the supernatant analyzed by GC-MS as described below.
For this analysis, 0.15 of the reaction volume of internal standard methyl succinate was added to the samples. The resulting sample was extracted into 4 mL ethyl acetate by vigorous vortexing for 20 min. The organic phase was separated and evaporated to dryness under a stream of nitrogen. The residue was dissolved in 30 μL pyridine and 30 μL N,O-Bis(trimethylsilyl)trifluoroacetamide (BSTFA) and incubated at 60° C. for 15 minutes. Compound identification and analysis was performed by GC-MS using an Agilent 7890B Series Custom Gas Chromatography system equipped with a 5977B Inert Plus Mass Selective Detector Turbo EI Bundle (for identification) and an Agilent HP-5-ms capillary column (0.25 mm internal diameter, 0.25 μm film thickness, 30 m length). Samples were analyzed by GC (1 μL injection with a 20:1 split ratio) using helium as the carrier gas at a flowrate of 1.5 mL/min and the following temperature profile: initial 90° C. for 3 min; ramp at 15° C./min to 170° C.; ramp at 20° C./min to 300° C. and hold for 8 min. The injector and detector temperature were 250° C. and 350° C., respectively.
As hypothesized from Example 3 (FIG. 22B), JGI15 had lower Km with lower kcat with respect to formaldehyde in comparison with JGI20 (Table 8). With longer chain aldehydes JGI15 and JGI20 has lower Km (sub millimolar) to acetaldehyde and propionaldehyde compared to JGI23 and JGI24, while also lower Kcat as well. Which indicates they have stronger affinity to the aldehyde and lower enzymatic activity. JGI23 and JGI24 are promising as they have better activity (higher Kcat) which have a good potential to work better in vivo by improve their affinity to substrates (lower Km). Similarly, AcHACL as lower Km with acetone while JGI15 as better Kcat (Table 8).

[3] = In vitro kinetic assay of purified HACS variants; substrate acetone; format: biochemical
Protocol: as §1, §2
For this analysis, 0.15 of the reaction volume of internal standard methyl succinate was added to the samples. The resulting sample was extracted into 4 mL ethyl acetate by vigorous vortexing for 20 min. […] Samples were analyzed by GC (1 μL injection with a 20:1 split ratio) using helium as the carrier gas at a flowrate of 1.5 mL/min and the following temperature profile: initial 90° C. for 3 min; ramp at 15° C./min to 170° C.; ramp at 20° C./min to 300° C. and hold for 8 min. […]

Row | Molecule | better tartronate productivity compared to other HACS variants [1] | Kcat, app [2] | Km [2] | Kcat, app [3]
1 | B1 | 30% | 17.35 ± 1.97 s⁻¹ | 420 ± 60 µM | –
2 | B2 | – | 11.08 ± 0.02 s⁻¹ | 200 ± 40 µM | 6.8 s⁻¹
